In patent publication EP4592321A1 (Biotheus Inc., dated 2025):

Assays:
[1] = biological target: T1, HER2 expressed on human gastric cancer cell N87 (human, UniProt P04626 23-1255); test: flow cytometry on N87 cells, MFI, anti-human IgG-Fc PE
T1 construct: whole, on cells; N87 cells are described as self-expressing HER2; also called human HER2 on N87 cells; HER2 antigen on N87

[2] = biological target: T2, human HER2 antigen (purchased from AcroBiosystems) (human, UniProt P04626 23-652); test: BLI (ForteBio), antibody on AHQ sensor, 100 nM HER2, 1:1 model
T2 construct: Bought soluble antigen used at 100 nM in BLI; also called human HER2 protein; HER2 protein

[3] = biological target: T2, human HER2 antigen (purchased from …); test: BLI (ForteBio), antibody before and after 2 and 4 weeks at 40 C on AHQ sensor, 100 nM human HER2

Row | binding result [1] | binding result [2] | binding result [3] | Binder
1 | binds | binds | – | Anti-HER2(NO3-02) (antibody, human IgG1, kappa, V domains shown, also called optimized Anti-HER2 antibody) VH: not shown VL: DIQMTQSPSSLSASVGDRVTITCRASQNVQGAVAWYQQKPGKAPKLLIYSASFLYSGVPSRFSGSRSGTDFTLTISSLQPEDFATYYCQQHYSTPPTFGQGTKVEIKR
2 | binds | – | binds | Anti-HER2(NO3-46) (antibody, human IgG1, kappa, V domains shown, also called optimized Anti-HER2 antibody) VH: not shown VL: DIQMTQSPSSLSASVGDRVTITCRASQSVQGAVAWYQQKPGKAPKLLIYSASFLYSGVPSRFSGSRSGTDFTLTISSLQPEDFATYYCQQHSTTPPTFGQGTKVEIKR
3 | binds | binds | – | Anti-HER2(NO3-36) (antibody, human IgG1, kappa, V domains shown, also called optimized Anti-HER2 antibody) VH: not shown VL: DIQMTQSPSSLSASVGDRVTITCRASNYVQTAVAWYQQKPGKAPKLLIYSASFLYSGVPSRFSGSRSGTDFTLTISSLQPEDFATYYCQQHFMTPPTFGQGTKVEIKR
4 | binds | binds | – | Anti-HER2(NO3-02)_single arm (antibody, human IgG1, kappa, also called Anti-HER2 single-arm antibody) heavy: not shown light: DIQMTQSPSSLSASVGDRVTITCRASQNVQGAVAWYQQKPGKAPKLLIYSASFLYSGVPSRFSGSRSGTDFTLTISSLQPEDFATYYCQQHYSTPPTFGQGTKVEIKRTVAAPSVFIFPPSDEQLKSGTASVVCLLNNFYPREAKVQWKVDNALQSGNSQESVTEQDSKDSTYSLSSTLTLSKADYEKHKVYACEVTHQGLSSPVTKSFNRGEC not shown
5 | binds | binds | – | Anti-HER2(NO3-46)_single arm (antibody, human IgG1, kappa, also called Anti-HER2 single-arm antibody) heavy: not shown light: DIQMTQSPSSLSASVGDRVTITCRASQSVQGAVAWYQQKPGKAPKLLIYSASFLYSGVPSRFSGSRSGTDFTLTISSLQPEDFATYYCQQHSTTPPTFGQGTKVEIKRTVAAPSVFIFPPSDEQLKSGTASVVCLLNNFYPREAKVQWKVDNALQSGNSQESVTEQDSKDSTYSLSSTLTLSKADYEKHKVYACEVTHQGLSSPVTKSFNRGEC not shown
6 | binds | binds | – | Anti-HER2(NO3-36)_single arm (antibody, human IgG1, kappa, also called Anti-HER2 single-arm antibody) heavy: not shown light: DIQMTQSPSSLSASVGDRVTITCRASNYVQTAVAWYQQKPGKAPKLLIYSASFLYSGVPSRFSGSRSGTDFTLTISSLQPEDFATYYCQQHFMTPPTFGQGTKVEIKRTVAAPSVFIFPPSDEQLKSGTASVVCLLNNFYPREAKVQWKVDNALQSGNSQESVTEQDSKDSTYSLSSTLTLSKADYEKHKVYACEVTHQGLSSPVTKSFNRGEC not shown
